Data as given in patent US20230322957A1 (ENGMAB SARL, published 2023).
Positions count from the first letter of the chain named.

B1: Mab 21 IgG (antibody, V domains shown)
VH: EVQLLESGGGLVQPGGSLRLSCAASGFTFSDNAMGWVRQAPGKGLEWVSAISGPGSSTYYADSVKGRFTISRDNSKNTLYLQMNSLRAEDTAVYYCAKVLGWFDYWGQGTLVTVSS
VL: EIVLTQSPGTLSLSPGERATLSCRASQSVSEYYLAWYQQKPGQAPRLLIEHASTRATGIPDRFSGSGSGTDFTLTISRLEPEDFAVYYCQQYGYPPDFTFGQGTKVEIK
notes: Tested as human IgG1; also called antibody 21
B2: Mab 27 IgG (antibody, V domains shown)
VH: EVQLLESGGGLVQPGGSLRLSCAASGFTFSSAPMGWVRQAPGKGLEWVSAISYIGHTYYADSVKGRFTISRDNSKNTLYLQMNSLRAEDTAVYYCAKVLGWFDYWGQGTLVTVSS
VL: B1 VL
notes: Tested as human IgG1
B3: Mab 33 IgG (antibody, V domains shown)
VH: B1 VH with S30Y, D31T, S52N, G53R, P54F, S56G
VL: B1 VL
notes: Tested as human IgG1
B4: Mab 22 IgG (antibody, V domains shown)
VH: B1 VH
VL: B1 VL with E31S, E50S, H51G, S53G, T54S
notes: Tested as human IgG1; also called antibody 22; clone 22

Target: recombinant cynomolgus BCMA Fc(kih) (cynomolgus, UniProt A0A2K5UD97 4-51, biotinylated in vivo at the avi-tag at the C-terminus of the Fc knob chain)
Sequence (A0A2K5UD97 entry or part of it): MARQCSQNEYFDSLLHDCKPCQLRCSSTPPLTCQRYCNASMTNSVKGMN
Assay: ratio of the SPR KDs of Table 4, human BCMA as reference
Experimental: Assessment of binding of anti-BCMA antibodies to recombinant BCMA by surface plasmon resonance (SPR) as follow. All SPR experiments were performed on a Biacore T200 at 25° C. with HBS-EP as running buffer (0.01M HEPES pH 7.4, 0.15M NaCl, 3 mM EDTA, 0.005% Surfactant P20, Biacore, Freiburg/Germany). The avidity of the interaction between anti-BCMA antibodies and recombinant BCMA Fc(kih) (human and cynomolgus) was determined. Biotinylated recombinant human and cynomolgus BCMA Fc(kih) were directly coupled on a SA chip following instructions (Biacore, Freiburg/Germany). The immobilization level ranged from 200 to 700 RU. […] The dissociation was monitored for 180 seconds. Bulk refractive index differences were corrected for by subtracting the response obtained on the reference flow cell. Here, the anti-BCMA antibodies were flown over an empty surface previously activated and deactivated as described in the standard amine coupling kit. Apparent kinetic constants were derived using the Biacore T200 Evaluation Software (vAA, Biacore AB, Uppsala/Sweden), to fit rate equations for 1:1 Langmuir binding by numerical integration, despite the bivalency of the interaction for comparison purposes. The affinity of the interaction between anti-BCMA antibodies and recombinant human BCMA Fc(kih) was also determined. Anti-human Fab antibody (GE Healthcare) was directly coupled on a CM5 chip at pH 5.0 using the standard amine coupling kit (Biacore, Freiburg/Germany). The immobilization level was about 6500 RU. […] The dissociation was monitored for 120 seconds. Bulk refractive index differences were corrected for by subtracting the response obtained on reference flow cell. […] Kinetic constants were derived using the Biacore T100 Evaluation Software (vAA, Biacore AB, Uppsala/Sweden), to fit rate equations for 1:1 Langmuir binding by numerical integration (Table 4).

Binder | Affinity cyno/hu gap (KD cynomolgus BCMA / KD human BCMA) [fold]
B1 | 9.3
B2 | 12.7
B3 | 4.2
B4 | 15.4
